Biological target: T1, HNE specific peptide GSGSGGGAAPVAAKGGGSGSC (not fully specified)
T1 chain: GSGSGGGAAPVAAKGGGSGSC

B1: recombinant Cathepsin-G enzyme (protein)
chain: IIGGRESRPHSRPYMAYLQIQSPAGQSRCGGFLVREDFVLTAAHCWGSNINVTLGAHNIQRRENTQQHITARRAIRHPQYNQRTIQNDIMLLQLSRRVRRNRNVNPVALPRAQEGLRPGTLCTVAGWGRVSMRRGTDTLREVQLRVQRDRQCLRIFGSYDPRRQICVGDRRERKAAFKGDSGGPLLCNNVAHGIVSYGKSSGVPPEVFTRVSSFLPWIRTTMRS
cleavage on the multiplex sensor, Cathepsin-G alone at 100 ng/mL: there was no cleavage seen in the bottom band | cleavage on the multiplex sensor, ratio 100 uL Cathepsin-G to 0 uL HNE: there was no reaction seen on the HNE sensor (Bottom band)

B2: recombinant Human Neutrophil Elastase (HNE) (protein)
chain: IVGGRRARPHAWPFMVSLQLRGGHFCGATLIAPNFVMSAAHCVANVNVRAVRVVLGAHNLSRREPTRQVFAVQRIFENGYDPVNLLNDIVILQLNGSATINANVQVAQLPAQGRRLGNGVQCLAMGWGLLGRNRGIASVLQELNVTVVTSLCRRSNVCTLVRGRQAGVCFGDSGSPLVCNGLIHGIASFVRGGCASGLYPDAFAPVAQFVNWIDSIIQ
cleavage on the multiplex sensor, HNE alone at 100 ng/mL: maximum reaction was seen in the bottom band containing HNE | cleavage on the multiplex sensor, ratio 0 uL Cathepsin-G to 100 uL HNE: maximum cleavage was seen on the HNE sensor (Bottom band) where a golden color change was visible | detection limit of cleavage in spiked saliva (colorimetric): The limits of detection for both spiked proteases were comparable to those obtained with the purified proteases | detection limit of proteolytic cleavage of the peptide-magnetic bead layer (colorimetric, visible bare gold surface): detection limit to be as low as 1 pg/mL for HNE

Reference: patent publication US10337047
